What is called Kd is the free concentration of one partner at which half of the binding sites on the other are occupied at equilibrium, for simple one-to-one binding. A word on the koff: it is the rate constant with which the complex falls apart. As a reminder, the kon is the rate constant with which the complex forms.

T1: CD3 protein
T1 chain 1: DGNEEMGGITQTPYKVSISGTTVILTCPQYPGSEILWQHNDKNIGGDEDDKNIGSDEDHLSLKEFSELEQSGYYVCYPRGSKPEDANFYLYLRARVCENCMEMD
T1 chain 2: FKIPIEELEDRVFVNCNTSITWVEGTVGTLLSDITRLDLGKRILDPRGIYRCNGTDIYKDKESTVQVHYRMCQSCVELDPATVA

B1: 19G296 (anti-CD26-CD3 humanized bispecific antibody derived from No. 212 mouse antibody) (bispecific antibody)
chain: QVQLQESGPGLVKPSETLSLTCTVSGDSITSGYWHWIRQPPGKGLEWIGYINYSGYTYYNPSLKSRFTISRDTSKNQYYLQLNSVTAEDTAVYYCTSERNWGAFAYWGQGTLVTVSSGGGGSGGGGSGGGGSENVLTQSPATLSASPGERATLSCRASSSVISTYLHWYQQKPGQAPKLWIYSTSNLASGVPARFSGSGSGTDYTLTISSVEPEDFAVYYCQQFSGYPYTFGQGTKLEIKGGGGSDVQLVQSGAEVKKPGASVKVSCKASGYTFTRYTMHWVRQAPGQGLEWIGYINPSRGYTNYADSVKGRFTITTDKSTSTAYMELSSLRSEDTATYYCARYYDDHYCLDYWGQGTTVTVSSGGGGSGGGGSGGGGSDIVLTQSPATLSLSPGERATLSCRASQSVSYMNWYQQKPGKAPKRWIYDTSKVASGVPARFSGSGSGTDYSLTINSLEAEDAATYYCQQWSSNPLTFGGGTKVEIK
B2: 19G297 (anti-CD26-CD3 humanized bispecific antibody derived from No. 212 mouse antibody) (bispecific antibody)
chain: B1 chain with Q1E, E16G, T23A, P40A, I48V, T142S, A151V, L153I, S154T, V218T
B3: 17G29 (anti-CD26-CD3 humanized bispecific antibody derived from YS110) (bispecific antibody)
chain: EVQLVESGAGVKQPGGTLRLTCTASGFSLTTYGVHWVRQAPGKGLEWVGVIWGDGRTDYDAAFMSRVTISKDTSKSTVYLQMNSLRAEDTAVYYCMRNRHDWFDYWGQGTTVTVSSGGGGSGGGGSGGGGSDILLTQSPSSLSATPGERATITCRASQGIRNNLNWYQQKPGQAPRLLIYYSSNLQSGVPSRFSGSGSGTDFTLTISRLQPEDVAAYYCQQSIKLPFTFGSGTKVEIKGGGGSDVQLVQSGAEVKKPGASVKVSCKASGYTFTRYTMHWVRQAPGQGLEWIGYINPSRGYTNYADSVKGRFTITTDKSTSTAYMELSSLRSEDTATYYCARYYDDHYCLDYWGQGTTVTVSSGGGGSGGGGSGGGGSDIVLTQSPATLSLSPGERATLSCRASQSVSYMNWYQQKPGKAPKRWIYDTSKVASGVPARFSGSGSGTDYSLTINSLEAEDAATYYCQQWSSNPLTFGGGTKVEIK
notes: also called positive control
B4: 19G292 (anti-CD26-CD3 humanized bispecific antibody derived from No. 62 mouse antibody) (bispecific antibody)
chain: QVQLLQSGAEVVKPGASVKISCKASGFNIKDTYIYWVKQPTGQGLEWIGRIEPMNGNTKYDPKFQGRFTMTANTSINTAYLQLSSLTSEDTAVYYCSRGGWLLLYVMDYWGQGTTVTVSSGGGGSGGGGSGGGGSDIVMTQSASSLPVTPGESVSISCRSDKSLLHSNGNTYLYWFLQRPGQSPQVLIYRMSNLASGVPDRFSGSGSGTEFTLTISRVEAEDVGVYYCFQQLEYPYTFGPGTKLEIKGGGGSDVQLVQSGAEVKKPGASVKVSCKASGYTFTRYTMHWVRQAPGQGLEWIGYINPSRGYTNYADSVKGRFTITTDKSTSTAYMELSSLRSEDTATYYCARYYDDHYCLDYWGQGTTVTVSSGGGGSGGGGSGGGGSDIVLTQSPATLSLSPGERATLSCRASQSVSYMNWYQQKPGKAPKRWIYDTSKVASGVPARFSGSGSGTDYSLTINSLEAEDAATYYCQQWSSNPLTFGGGTKVEIK
B5: 19G293 (anti-CD26-CD3 humanized bispecific antibody derived from No. 62 mouse antibody) (bispecific antibody)
chain: QVQLVQSGAELVKPGASVKLSCKASGFNIKDTYIYWVRQAPGQGLEWIGRIEPMNGNTKYDPKFQGRVTMTANTSINTAYLELSSLRSEDTAVYYCSRGGWLLLYVMDYWGQGTLVTVSSGGGGSGGGGSGGGGSDIVMTQSPLSLSVTPGEPASISCRSDKSLLHSNGNTYLYWFLQKPGQSPQVLIYRMSNLASGVPDRFSGSGSGTDFTLKISRVEAEDVGVYYCFQQLEYPYTFGQGTKLEIKGGGGSDVQLVQSGAEVKKPGASVKVSCKASGYTFTRYTMHWVRQAPGQGLEWIGYINPSRGYTNYADSVKGRFTITTDKSTSTAYMELSSLRSEDTATYYCARYYDDHYCLDYWGQGTTVTVSSGGGGSGGGGSGGGGSDIVLTQSPATLSLSPGERATLSCRASQSVSYMNWYQQKPGKAPKRWIYDTSKVASGVPARFSGSGSGTDYSLTINSLEAEDAATYYCQQWSSNPLTFGGGTKVEIK
B6: 18G272 (anti-CD26-CD3 humanized bispecific antibody derived from No. 62 mouse antibody) (bispecific antibody)
chain: DIVMTQSASSLPVTPGEPASISCRSDKSLLHSNGNTYLYWFLQKPGQSPQVLIYRMSNLASGVPDRFSGSGSGTDFTLTISRVEAEDVGVYYCFQQLEYPYTFGQGTKLEIKGGGGSGGGGSGGGGSQVQLVQSGAEVVKPGASVKISCKASGFNIKDTYIYWVRQRTGQGLEWIGRIEPMNGNTKYDPKFQGRLTMTANTSKNTAYLQLSSLTSEDTAVYYCSRGGWLLLYVMDYWGQGTTVTVSSGGGGSDVQLVQSGAEVKKPGASVKVSCKASGYTFTRYTMHWVRQAPGQGLEWIGYINPSRGYTNYADSVKGRFTITTDKSTSTAYMELSSLRSEDTATYYCARYYDDHYCLDYWGQGTTVTVSSGGGGSGGGGSGGGGSDIVLTQSPATLSLSPGERATLSCRASQSVSYMNWYQQKPGKAPKRWIYDTSKVASGVPARFSGSGSGTDYSLTINSLEAEDAATYYCQQWSSNPLTFGGGTKVEIK

Positions count from the first letter of the chain named. Some results are limits rather than exact numbers.

One test addresses T2, CD26 protein (recombinant human CD26) (human, UniProt P27487 29-766, limits assumed).
T2 construct: Amine-coupled, biotinylated or HRP-labeled according to the assay; also called DPP4; rCD26
The test can be described thus: BLI (Octet), biotinylated CD26 on SA sensor, antibody 31.3-500 nM. The method, then:
CD26 protein was biotinylated with EZ-link NHS-PEG12-Biotin. Biotinylated CD26 protein was immobilized to SA biosensor. Equilibrated in 1×Kinetics solution. The CD26 immobilized to SA biosensor was combined with the antibody solution to be detected. The concentration gradients of the antibody solution were 31.3 nM, 62.5 nM, 125 nM, 250 nM, and 500 nM. The biosensor was dissociated in 1×Kinetics solution. Fortebio Data Analysis 8.0 software was used for data analysis and affinity constant values were calculated.
In general terms: BLI is a label-free optical method that tracks binding on a fibre tip over time.
B1: the Kd is 14.8 nM, the koff came to 0.0014 s⁻¹ and the on-rate constant (kon) stood at 94500 M⁻¹ s⁻¹.
B2: the Kd turned out to be 4.4 nM, the off-rate constant (koff) was 0.00037 s⁻¹ and the kon is 91800 M⁻¹ s⁻¹.
For B3 the same measures were 1.18 nM, 0.000216 s⁻¹ and 183000 M⁻¹ s⁻¹.
Regarding B4, the Kd was below 0.001 nM and the kon turned out to be 65800 M⁻¹ s⁻¹.
For B5, the dissociation constant (Kd) is below 0.001 nM and the kon is 54600 M⁻¹ s⁻¹.

The target in the next test is T1, CD3 protein. The test can be described thus: BLI (Octet), biotinylated CD3 on SA sensor, antibody 200-1600 nM. The method, then:
CD3 protein was biotinylated with EZ-link NHS-PEG12-Biotin. Biotinylated CD3 protein was immobilized to SA biosensor. Equilibrated in 1×Kinetics solution. The CD3 immobilized to SA biosensor was combined with the humanized bispecific antibody solution to be detected. The concentration gradient of humanized bispecific antibody was 200 nM, 400 nM, 800 nM, and 1600 nM. The biosensor was dissociated in 1×Kinetics solution. Fortebio Data Analysis 8.0 software was used for data analysis and affinity constant values were calculated.
Molecule B1 came in with a Kd of 9.67 nM, a koff of 0.00225 s⁻¹ and a kon of 233000 M⁻¹ s⁻¹.
In the case of B2, the affinity, expressed as Kd, was 10.1 nM; the koff was found to be 0.00367 s⁻¹; the kon was 362000 M⁻¹ s⁻¹.
B3 had a dissociation constant (Kd) of 12.2 nM.
As to B4, the equilibrium dissociation constant (Kd) was found to be 0.568 nM, the koff came to 0.000107 s⁻¹ and the kon was 188000 M⁻¹ s⁻¹.
The like results for B5 were, in that order, 1.73 nM, 0.000571 s⁻¹ and 331000 M⁻¹ s⁻¹.

The target of another test is CD26 on CD26 positive human tumor cells (human, UniProt P27487 1-766). In words: cell-based or functional assay.
For the molecule B3, the “IC50 of antibody mediated PBMC cytotoxicity against 786-0 cells” value (“IC50 … against 786-0 cells” below) is 1.03 ng/mL, the “IC50 of antibody mediated PBMC cytotoxicity against NCI-H226 cells” value (“IC50 … against NCI-H226 cells” below) was found to be 0.918 ng/mL, the “IC50 of antibody mediated PBMC cytotoxicity against OS-RC-2 cells” value (shortened to “IC50 … against OS-RC-2 cells”) was 0.958 ng/mL and the “IC50 of antibody mediated PBMC cytotoxicity against PC-3 cells” value (“IC50 … against PC-3 cells” below) was determined as 1.14 ng/mL.
As for B6, the “IC50 … against 786-0 cells” value amounted to 2.27 ng/mL, the “IC50 … against NCI-H226 cells” value came to 0.143 ng/mL, the “IC50 … against OS-RC-2 cells” value was 0.284 ng/mL and the “IC50 … against PC-3 cells” value is 0.379 ng/mL.
The like results for B4 were, in that order, 0.805 ng/mL, 1.1 ng/mL, 1.04 ng/mL and 0.339 ng/mL.
With B5, the “IC50 … against 786-0 cells” value was found to be 0.974 ng/mL, the “IC50 … against NCI-H226 cells” value was 0.405 ng/mL, the “IC50 … against OS-RC-2 cells” value stood at 2.25 ng/mL and the “IC50 … against PC-3 cells” value is 0.565 ng/mL.

The values are drawn from patent US20250179208A1 (ZONHON BIOPHARMA INSTITUTE, published 2025).
